Reference: article PMC8382222 (2021)
Values belong to the binder of their own block, whether it stands above or below them.

What was measured:
VEGF-114 peptide = VEGF-114 peptide (C-terminal amide (amidate version); cyclized); assay: SPR
CRP-1 peptide = CRP-1 peptide (C-terminal amide (amidate version); cyclized); assay: SPR

- Kd (VEGF-114 peptide): 10.3 µM
- koff (VEGF-114 peptide): 0.75 s⁻¹
B1: vascular endothelial growth factor (Recombinant Human VEGF165) (ligand)
chain: APMAEGGGQNHHEVVKFMDVYQRSYCHPIETLVDIFQEYPDEIEYIFKPSCVPLMRCGGCCNDEGLECVPTEESNITMQIMRIKPHQGQHIGEMSFLQHNKCECRPKKDRARQENPCGPCSERRKHLFVQDPQTCKCSCKNTDSRCKARQLELNERTCRCDKPRR

- Kd (CRP-1 peptide): 12 µM
- koff (CRP-1 peptide): 0.046 s⁻¹
B2: C-reactive protein (CRP) (natural protein)
chain: QTDMSRKAFVFPKESDTSYVSLKAPLTKPLKAFTVCLHFYTELSSTRGYSIFSYATKRQDNEILIFWSKDIGYSFTVGGSEILFEVPEVTVAPVHICTSWESASGIVEFWVDGKPRVRKSLKKGYTVGAEASIILGQEQDSFGGNFEGSQSLVGDIGNVNMWDFVLSPDEINTIYLGGPFSPNVLNWRALKYEVQGEVFTKPQLWP
